Assays:
HeLa Kyoto [1] = assay: solubility in G1/S (NP-40 vs SDS abundance) (log2 ratio); higher = more soluble; settings: cell cycle stage: G1/S
HeLa Kyoto [2] = assay: solubility change mitosis vs G1/S (difference of NP-40 vs SDS log2 ratios) (log2 ratio difference); higher = more soluble in mitosis
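Wherever solubility change mitosis vs G1/S (difference of NP-40 vs SDS log2 ratios) is given: synchronized HeLa Kyoto cells (double thymidine block for G1/S, nocodazole release for mitosis), protein amounts in NP-40 versus SDS lysates quantified by mass spectrometry, three biological replicates.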
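Wherever solubility in G1/S (NP-40 vs SDS abundance) is given: HeLa Kyoto cells arrested at G1/S by double thymidine block, proteins quantified by TMT10plex mass spectrometry in mild NP-40 versus SDS extracts, three biological replicates.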

| Substance | solubility in G1/S (log2) (HeLa Kyoto [1]) | solubility change mitosis (log2) (HeLa Kyoto [2]) |
| --- | --- | --- |
| MFFYLSKKISIPNNVKLQCVSWNKEQGFIACGGEDGLLKVLKLETQTDDAKLRGLAAPSNLSMNQTLEGHSGSVQVVTWNEQYQKLTTSDENGLIIVWMLYKGSWIEEMINNRNKSVVRSMSWNADGQKICIVYEDGAVIVGSVDGNRIWGKDLKGIQLSHVTWSADSKVLLFGMANGEIHIYDNQGNFMIKMKLSCLVNVTGAISIAGIHWYHGTEGYVEPDCPCLAVCFDNGRCQIMRHENDQNPVLIDTGMYVVGIQWNHMGSVLAVAGFQKAAMQDKDVNIVQFYTPFGEHLGTLKVPGKEISALSWEGGGLKIALAVDSFIYFANIRPNYKWGYCSNTVVYAYTRPDRPEYCVVFWDTKNNEKYVKYVKGLISITTCGDFCILATKADENHPQEENEMETFGATFVLVLCNSIGTPLDPKYIDIVPLFVAMTKTHVIAASKEAFYTWQYRVAKKLTALEINQITRSRKEGRERIYHVDDTPSGSMDGVLDYSKTIQGTRDPICAITASDKILIVGRESGTIQRYSLPNVGLIQKYSLNCRAYQLSLNCNSSRLAIIDISGVLTFFDLDARVTDSTGQQVVGELLKLERRDVWDMKWAKDNPDLFAMMEKTRMYVFRNLDPEEPIQTSGYICNFEDLEIKSVLLDEILKDPEHPNKDYLINFEIRSLRDSRALIEKVGIKDASQFIEDNPHPRLWRLLAEAALQKLDLYTAEQAFVRCKDYQGIKFVKRLGKLLSESMKQAEVVGYFGRFEEAERTYLEMDRRDLAIGLRLKLGDWFRVLQLLKTGSGDADDSLLEQANNAIGDYFADRQKWLNAVQYYVQGRNQERLAECYYMLEDYEGLENLAISLPENHKLLPEIAQMFVRVGMCEQAVTAFLKCSQPKAAVDTCVHLNQWNKAVELAKNHSMKEIGSLLARYASHLLEKNKTLDAIELYRKANYFFDAAKLMFKIADEEAKKGSKPLRVKKLYVLSALLIEQYHEQMKNAQRGKVKGKSSEATSALAGLLEEEVLSTTDRFTDNAWRGAEAYHFFILAQRQLYEGCVDTALKTALHLKDYEDIIPPVEIYSLLALCACASRAFGTCSKAFIKLKSLETLSSEQKQQYEDLALEIFTKHTSKDNRKPELDSLMEGGEGKLPTCVATGSPITEYQFWMCSVCKHGVLAQEISHYSFCPLCHSPVG [WDR35] | -0.261 | -0.105 |
| MFPLKDAEMGAFTFFASALPHDVCGSNGLPLTPNSIKILGRFQILKTITHPRLCQYVDISRGKHERLVVVAEHCERSLEDLLRERKPVSCSTVLCIAFEVLQGLQYMNKHGIVHRALSPHNILLDRKGHIKLAKFGLYHMTAHGDDVDFPIGYPSYLAPEVIAQGIFKTTDHMPSKKPLPSGPKSDVWSLGIILFELCVGRKLFQSLDISERLKFLLTLDCVDDTLIVLAEEHGCLDIIKELPETVIDLLNKCLTFHPSKRPTPDQLMKDKVFSEVSPLYTPFTKPASLFSSSLRCADLTLPEDISQLCKDINNDYLAERSIEEVYYLWCLAGGDLEKELVNKEIIRSKPPICTLPNFLFEDGESFGQGRDRSSLLDDTTVTLSLCQLRNRLKDVGGEAFYPLLEDDQSNLPHSNSNNELSAAATLPLIIREKDTEYQLNRIILFDRLLKAYPYKKNQIWKEARVDIPPLMRGLTWAALLGVEGAIHAKYDAIDKDTPIPTDRQIEVDIPRCHQYDELLSSPEGHAKFRRVLKAWVVSHPDLVYWQGLDSLCAPFLYLNFNNEALAYACMSAFIPKYLYNFFLKDNSHVIQEYLTVFSQMIAFHDPELSNHLNEIGFIPDLYAIPWFLTMFTHVFPLHKIFHLWDTLLLGNSSFPFCIGVAILQQLRDRLLANGFNECILLFSDLPEIDIERCVRESINLFCWTPKSATYRQHAQPPKPSSDSSGGRSSAPYFSAECPDPPKTDLSRESIPLNDLKSEVSPRISAEDLIDLCELTVTGHFKTPSKKTKSSKPKLLVVDIRNSEDFIRGHISGSINIPFSAAFTAEGELTQGPYTAMLQNFKGKVIVIVGHVAKHTAEFAAHLVKMKYPRICILDGGINKIKPTGLLTIPSPQI [TBCK] | -0.278 | -0.162 |
| MFPVKVKVEKSELEMAKARNQLDAVLQCLLEKSHMDRERLDEEAGKTPSDTHNKDCSIAATGKRPSARFPHQRRKKRREMDDGLAEGGPQRSNTYVIKLFDRSVDLAQFSENTPLYPICRAWMRNSPSVRERECSPSSPLPPLPEDEEGSEVTNSKSRDVYKLPPPTPPGPPGDACRSRIPSPLQPEMQGTPDDEPSEPEPSPSTLIYRNMQRWKRIRQRWKEASHRNQLRYSESMKILREMYERQ [LIN37] | 0.591 | 0.0692 |
| MFRLLSWSLGRGFLRAAGRRCRGCSARLLPGLAGGPGPEVQVPPSRVAPHGRGPGLLPLLAALAWFSRPAAAEEEEQQGADGAAAEDGADEAEAEIIQLLKRAKLSIMKDEPEEAELILHDALRLAYQTDNKKAITYTYDLMANLAFIRGQLENAEQLFKATMSYLLGGGMKQEDNAIIEISLKLASIYAAQNRQEFAVAGYEFCISTLEEKIEREKELAEDIMSVEEKANTHLLLGMCLDACARYLLFSKQPSQAQRMYEKALQISEEIQGERHPQTIVLMSDLATTLDAQGRFDEAYIYMQRASDLARQINHPELHMVLSNLAAVLMHRERYTQAKEIYQEALKQAKLKKDEISVQHIREELAELSKKSRPLTNSVKL [TTC19] | 0.331 | 0.00456 |
| MGA | -0.38 | 0.233 |
| MGASSSSALARLGLPARPWPRWLGVAALGLAAVALGTVAWRRAWPRRRRRLQQVGTVAKLWIYPVKSCKGVPVSEAECTAMGLRSGNLRDRFWLVIKEDGHMVTARQEPRLVLISIIYENNCLIFRAPDMDQLVLPSKQPSSNKLHNCRIFGLDIKGRDCGNEAAKWFTNFLKTEAYRLVQFETNMKGRTSRKLLPTLDQNFQVAYPDYCPLLIMTDASLVDLNTRMEKKMKMENFRPNIVVTGCDAFEEDTWDELLIGSVEVKKVMACPRCILTTVDPDTGVIDRKQPLDTLKSYRLCDPSERELYKLSPLFGIYYSVEKIGSLRVGDPVYRMV [MARC2] | -0.315 | 0.103 |
| MGDDRPFVCNAPGCGQRFTNEDHLAVHKHKHEMTLKFGPARTDSVIIADQTPTPTRFLKNCEEVGLFNELASSFEHEFKKAADEDEKKAAAGPLDMSLPSTPDIKIKEEEPVEVDSSPPDSPASSPCSPPLKEKEVTPKPVLISTPTPTIVRPGSLPLHLGYDPLHPTLPSPTSVITQAPPSNRQMGSPTGSLPLVMHLANGQTMPVLPGPPVQMPSVISLARPVSMVPNIPGIPGPPVNSSGSISPSGHPIPSEAKMRLKATLTHQVSSINGGCGMVVGTASTMVTARPEQSQILIQHPDAPSPAQPQVSPAQPTPSTGGRRRRTVDEDPDERRQRFLERNRAAASRCRQKRKLWVSSLEKKAEELTSQNIQLSNEVTLLRNEVAQLKQLLLAHKDCPVTALQKKTQGYLESPKESSEPTGSPAPVIQHSSATAPSNGLSVRSAAEAVATSVLTQMASQRTELSMPIQSHVIMTPQSQSAGR [ATF7] | 0.504 | 0.0933 |

Source: the supplement of paper PMC5998384
